Biological target: monomeric p51 subunit of HIV-1 RT (HIV-1) (UniProt P03366)
Test: size-exclusion chromatography, 3.5 µM p51 with 20 µM FITC-PAW

monomeric p51 subunit of HIV-1 RT (from UniProt P03366 600-1039) (enzyme)
percent of p51 dimeric: 4.6%

From US20110294728A1, “Antiviral Polypeptides” (priority 2008, published 2011)
